Reference: the nanobody polyreactivity screen of Harvey et al. (2022)

Assay: yeast display, Sf9 membrane polyspecificity reagent, FACS + sequencing; frameworks hold sequencing errors
Summary of the method: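 Nanobodies came from a synthetic yeast display library in Saccharomyces cerevisiae BJ5465, induced with galactose for 36–48 hours and stained for 1 hour at 4 °C with 10% biotinylated, detergent-solubilized Sf9 membrane reagent. Cells were enriched on streptavidin microbeads and then FACS-sorted, with low and high (top ~1%) gates set on anti-HA fluorescence for expression and streptavidin fluorescence for reagent binding. Each polyreactivity label reflects the gate a clone came from. Genes were amplified by colony PCR, sequenced by MiSeq 2 × 250 and filtered by CDR length.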

Sequence	polyreactivity (PSR sort gate)
QVQLVESVGGLVQAGGSLRLSCAASGSIFFNYTMGWYRQAPGKERELVAAINSSGGRTNYADSVKGRFTISRDNAKNTVYLQMNSLKPEDTAVYYCAAVYYDVWYVYWGQGTQVTVSS	low polyreactivity
QVQLVESVGGLVQAGGSLRLSCAASGSIFNRYAMGRYRQAPGKERELVAAISTHTGTTYYADSVKGRFTISRDNAKNTVYLQMNSLKPEDTAVYYCAKRSRYGYGKSYDYWGQGTQVTVSS	high polyreactivity
QVQLVESVGGLVQAGGSLRLSCAASGSIFRSYAMGWYRQAPGKERELVAAISWSGASTYYADSVKGRFTISRDNAKNTVYLQMNSLKPEDTAVYYCAARPRYWRWYSGDYWGQGTQVTVSS	high polyreactivity
QVQLVESVGGLVQAGGSLRLSCAASGSIFYGYAMGWYRQAAGKEREFVAAITFSATSTYYADSVKGRFTISRDNAKNTVYLQMNSLKPEVTAVYYCNASHVSHYRARDYWGQGTQVTVSS	low polyreactivity
QVQLVESVGGLVQAGGSLRLSCAASGSIIYHYPMGWYRHAPGKEAELVAAIYTTAGDTYYADSVKGRFTISRDNAKNTVYLQMNCLKPEDTAVYYCNASSSYFYYVRYDHWGQGTQVTVSS	low polyreactivity
QVQLVESVGGLVQAGGSLRLSCAASGSILQHYAMGWYRQAPGKETELVASISWTGGSTYYADSVKGRFTISRDNAKNTVYLQMNCLKPEDTAVYYCAARRYRYYSRGSWGQGTQVTVSS	high polyreactivity
QVQLVESVGGLVQAGGSLRLSCAASGSISIRNAMGWYRQAPGKERELVAAITYSGGSTYYADSVKGRFTISRDNAKNTVYLQMNSLKPEDTAVYYCNKDTYLATYLYDYWGQGTQVTVSS	low polyreactivity
QVQLVESVGGLVQAGGSLRLSCAASGSNFKYYAMGWYRQAPGKERELVAAITIGGNTNYADSVKGRFTISRDNAKNTVYLQMNSLKPEDTAVYYCATGGYYSAIVYGGYDYWGQGTQVTVSS	low polyreactivity
QVQLVESVGGLVQAGGSLRLSCAASGSTFALNAMGWYRQAPGKERELVAAISYSGGSTYYADSVKGRFTISRDNAKNTVYLQINSLKPDDTAVYYCNAEVYFSGWVLYYYWGQGTQVTVSS	high polyreactivity
QVQLVESVGGLVQAGGSLRLSCAASGSTFGHNAMGWYRQAPGKERELVAVITSGGSTYYADSVKGRFTISRDNAKNTVYLQMNSLKPEDTAVYYCAKRYWSRGSKSSPYAYDYWGQGTQVTVSS	high polyreactivity
QVQLVESVGGLVQAGGSLRLSCAASGSTFLRYAMGWYRQAPGKERELVAAITASGGSTYYADSVKGRFTISRDNAKKSVYLQMNSLKPEDTAVYYCAADGRYIGKNSHDLWIYGYYYWGQGTQVTVSS	low polyreactivity
QVQLVESVGGLVQAGGSLRLSCAASGSTFSSYAMGWYRTAPGKERELVAALTASGGSTYYADSVKGRFTISRDNAKNTVYLQMNSLKPEDTAVYYCAAADVIFWLYYYWVQGTQVTVSS	low polyreactivity
QVQLVESVGGLVQAGGSLRLSCAASGSTFVIYAMGWYRQAHGKERELVAAISGRTGSTYYADSVKGRFTISRDNAKNTVYLQMNSLKPEDTAVYYCAAYKRSGLKYGHWGQGTQVTVSS	high polyreactivity
QVQLVESVGGLVQAGGSLRLSCAASGSTFVRYTMGWYRQAPGKERALVAAISWNGGRTYYADSVKGRFTISRDNTKNTVYLQMNSLKPEDTAVYYCNAVRLVYTGNSDYGYWGQGTQVTVSS	high polyreactivity
QVQLVESVGGLVQAGGSLRLSCAASGSTFWFYTMGWYRQAPGKERELVATITSGGSTNYADSVKGRFTISRDNAKNTVYLQMNSLKPEDTAVYYCAASSVLTNHDYWGQGTQVTVSS	low polyreactivity
QVQLVESVGGLVQAGGSLRLSCAASGSTFYHYAMGWYRQAPGKVRELVASISHSGGRTFYADSVKGRFTISRDNAMNTVYLQMNSLKPEDTAVYYCAADWRTRYDYWGQGTQVTVSS	low polyreactivity

Sequence	polyreactivity (PSR sort gate)
QVQLVESVGGLVQAGGSLRLSCAASGSTFYPNAMGLYRQAPGKESELVAAITSGGSTYYADSVKGRFTISRDNAKNTVYLQMNTLKPEDTAVYYCAAQRRYHLDTTIGPGNYYYWGQGTQVTVSS	low polyreactivity
QVQLVESVGGLVQAGGSLRLSCAASGSTIDGYAMGWYRQAPGKEREFVAAISFSSASTYYADSVKGRFTISRDNAKNTVYLQMNSLKPEDTAVYYCNADFFDSGGSIEYDSWGQGTQVTVSS	low polyreactivity
QVQLVESVGGLVQAGGSLRLSCAASGTFSPYAMGWYRQAPGKERELVAVITSNTGRTYADSVKGRFTISRDNAKNSVYLQMNSLKPEDTAVYYCAARSTYRHWYRTGSRFDYWGQGTQVTVSS	low polyreactivity
QVQLVESVGGLVQAGGSLRLSCAATRSIFKIMRWYRQAPGKERELVAAISSSVGNTYYADSVKGRFTISRDNAKNTVYLQMNSLKPEDTAVYYCAAQSKYYQYYSWGQGTQVTVSS	high polyreactivity
QVQLVESVGGLVQAGGSLRLSCASSGNIFGAYAMGWYRQAPGKERELVAAIDSGSTNYADSVKGRFTISRDNAKNTVSLQMNSLKPEDTAVYYCNTKDQDVKVHHTSNTDDYWGQGTQVTVSS	low polyreactivity
QVQLVESVGGLVQAGGSLRLSCDASGSTFTSYTMGWYRPAPGKERELVAAISRSDGDRTYYADSVKGRFTISRDNAKNTVYLQMNSLKPEDTAVYYCAAEVTPRIVRYYYWGQGTQVTVSS	high polyreactivity
QVQLVESVGGLVQAGGSLRLSCPASGITFEQYAMGWYRQAPGKEREWVAAISSNGGITFYADSVKGRFTISRDNAKNTVYLQMNSLKPEDTAVYYCAARLCVTYPYIAYDYWGQGTQVTVSS	high polyreactivity
QVQLVESVGGLVQAGGSLRLSCPASGSIFGPYAMGWYRQAPGKERELVAAMTIGGDNTYYADSVKGRFTISRDNAKNTVYLQMNSLKPEDTAVYYCAAKYYGGKPHYYEYYYWGQGTQVTVSS	low polyreactivity
QVQLVESVGGLVQAGGSLRLSFAASGRTFVWYVMGWYSQAPVKERELVAAISLRGGTTYYADSVKGRFTISRDNAKNTVYLQMNSLKPEDTAVYYCAIAGIRHVTSKFKGYHFGYWGQGTQVTVSS	low polyreactivity
QVQLVESVGGLVQAGGSLRLSSAASGRIFSYKVMGWYRQAPGKESELVAAITSNDGSTYYADSVKGRFTISRDNAKNTVYLQMNSLKPVDTADYYCNADYGPVSLNEPFRDDYWGQGTQVTVSS	low polyreactivity
QVQLVESVGGLVQAGGSLRLSSAASGRILGYYAMGWYRQAPGKERELVAAISRACSTNYADSVKGRFTISRDNAKNTVYLQMNSLKPEDTAVYYCAARPYRRGYNYWGQGSQVTVSS	high polyreactivity
QVQLVESVGGLVQAGGSLRLTCAASGSIFYVYAMGWYRQAPGKERELVANIRDGGITYADSVKGRFTISRDNAKNTVYLQMNSLKPEDTAVYYCARDDTSPGYGDQSSNAAYYYRGQGTQVTVSS	low polyreactivity
QVQLVESVGGLVQAGGSLRLTCAASGSTFWLNDMGWYRQATGKERELVAAISFSGASTYYADSVKGRFTISRDNAKNTVYLQMNILKPEDTAVYYCNAGWGRAEFLSEAVFDSRMYYWGQGTQVTVSS	low polyreactivity
QVQLVESVGGLVQEGGSLRLSSAATGYTFDVYAMGWSRQAPGKERELVAAISTRGTRTYYADSEKGRFTISRDNAKNTVYLQMNSLKPEDTAVYYCAAYVYDGETESRFDYWGQGTQVTVSS	high polyreactivity
QVQLVESVGVLVQAGGSLRLSCAASGLIIDGYAMGWYRQAPGKERELVATITVSGTSTYYADSVKGRFTISRDNEKNTVYLQMNSLIPEDTAVYYCATDRNYGYYFVEYDHDYWGQGTQVTVSS	low polyreactivity
